{"source": "the supplement of paper PMC11246515", "assay": "total protein half-life in vivo (active degradation + dilution); higher = more stable protein", "key": {"[1]": {"settings": "E. coli NCM3722 delta-clpP, growth: N-lim chemostat, doubling time 6 h"}, "[2]": {"settings": "E. coli NCM3722 delta-hslV, growth: N-lim chemostat, doubling time 6 h"}, "[3]": {"settings": "E. coli NCM3722 delta-lon, growth: N-lim chemostat, doubling time 6 h"}, "[4]": {"settings": "E. coli NCM3722 delta-smpB, growth: N-lim chemostat, doubling time 6 h"}, "[5]": {"settings": "wild type E. coli NCM3722, growth: C-lim chemostat, doubling time 3 h"}, "[6]": {"settings": "wild type E. coli NCM3722, growth: C-lim chemostat, doubling time 6 h"}, "[7]": {"settings": "wild type E. coli NCM3722, growth: C-lim chemostat, doubling time 12 h"}, "[8]": {"settings": "wild type E. coli NCM3722, growth: N-lim chemostat, doubling time 6 h"}, "[9]": {"settings": "wild type E. coli NCM3722, growth: N-lim chemostat, doubling time 12 h"}, "[10]": {"settings": "wild type E. coli NCM3722, growth: P-lim chemostat, doubling time 6 h"}, "[11]": {"settings": "wild type E. coli NCM3722, growth: P-lim chemostat, doubling time 12 h"}, "[12]": {"settings": "E. coli NCM3722 delta-clpP delta-lon delta-hslV, growth: N-lim chemostat, doubling time 6 h"}}, "note": "± gives the standard deviation of the averaged measurements."}
{"sequence": "MSKPPLFFIVIIGLIVVAASFRFMQQRREKADNDMAPLQQKLVVVSNKREKPINDRRSRQQEVTPAGTSIRYEASFKPQSGGMEQTFRLDAQQYHALTVGDKGTLSYKGTRFVSFVGEQ", "values": [{"measurement": "total protein half-life in vivo", "setting": "[1]", "value": 6.5, "unit": "h"}, {"measurement": "total protein half-life in vivo", "setting": "[2]", "value": "6.4 ± 0.69", "unit": "h"}, {"measurement": "total protein half-life in vivo", "setting": "[3]", "value": "5.45 ± 0.15", "unit": "h"}, {"measurement": "total protein half-life in vivo", "setting": "[4]", "value": "5.65 ± 0.38", "unit": "h"}, {"measurement": "total protein half-life in vivo", "setting": "[5]", "value": "3.61 ± 0.1", "unit": "h"}, {"measurement": "total protein half-life in vivo", "setting": "[6]", "value": "6.11 ± 0.42", "unit": "h"}, {"measurement": "total protein half-life in vivo", "setting": "[7]", "value": "11.6 ± 0.63", "unit": "h"}, {"measurement": "total protein half-life in vivo", "setting": "[8]", "value": "5.71 ± 0.065", "unit": "h"}, {"measurement": "total protein half-life in vivo", "setting": "[9]", "value": "11.3 ± 0.54", "unit": "h"}, {"measurement": "total protein half-life in vivo", "setting": "[10]", "value": "5.66 ± 0.5", "unit": "h"}, {"measurement": "total protein half-life in vivo", "setting": "[11]", "value": "11.5 ± 0.14", "unit": "h"}]}
{"sequence": "MSKRKVAIIGSGNIGTDLMIKILRHGQHLEMAVMVGIDPQSDGLARARRMGVATTHEGVIGLMNMPEFADIDIVFDATSAGAHVKNDAALREAKPDIRLIDLTPAAIGPYCVPVVNLEANVDQLNVNMVTCGGQATIPMVAAVSRVARVHYAEIIASIASKSAGPGTRANIDEFTETTSRAIEVVGGAAKGKAIIVLNPAEPPLMMRDTVYVLSDEASQDDIEASINEMAEAVQAYVPGYRLKQRVQFEVIPQDKPVNLPGVGQFSGLKTAVWLEVEGAAHYLPAYAGNLDIMTSSALATAEKMAQSLARKAGEAA", "values": [{"measurement": "total protein half-life in vivo", "setting": "[12]", "value": "4.09 ± 1.4", "unit": "h"}, {"measurement": "total protein half-life in vivo", "setting": "[1]", "value": "5.24 ± 2.6", "unit": "h"}, {"measurement": "total protein half-life in vivo", "setting": "[2]", "value": "2.65 ± 0.48", "unit": "h"}, {"measurement": "total protein half-life in vivo", "setting": "[3]", "value": 2.43, "unit": "h"}, {"measurement": "total protein half-life in vivo", "setting": "[4]", "value": "2.21 ± 0.73", "unit": "h"}, {"measurement": "total protein half-life in vivo", "setting": "[5]", "value": "2.71 ± 0.36", "unit": "h"}, {"measurement": "total protein half-life in vivo", "setting": "[6]", "value": 4.45, "unit": "h"}, {"measurement": "total protein half-life in vivo", "setting": "[7]", "value": "6.77 ± 2.3", "unit": "h"}, {"measurement": "total protein half-life in vivo", "setting": "[8]", "value": 5.59, "unit": "h"}, {"measurement": "total protein half-life in vivo", "setting": "[9]", "value": 4.45, "unit": "h"}, {"measurement": "total protein half-life in vivo", "setting": "[10]", "value": 3.53, "unit": "h"}, {"measurement": "total protein half-life in vivo", "setting": "[11]", "value": "6.2 ± 0.2", "unit": "h"}]}
{"sequence": "MSKSNPSEVKLAVPTSGGFSGLKSLNLQVFVMIAAIIAIMLFFTWTTDGAYLSARNVSNLLRQTAITGILAVGMVFVIISAEIDLSVGSMMGLLGGVAAICDVWLGWPLPLTIIVTLVLGLLLGAWNGWWVAYRKVPSFIVTLAGMLAFRGILIGITNGTTVSPTSAAMSQIGQSYLPASTGFIIGALGLMAFVGWQWRGRMRRQALGLQSPASTAVVGRQALTAIIVLGAIWLLNDYRGVPTPVLLLTLLLLGGMFMATRTAFGRRIYAIGGNLEAARLSGINVERTKLAVFAINGLMVAIAGLILSSRLGAGSPSAGNIAELDAIAACVIGGTSLAGGVGSVAGAVMGAFIMASLDNGMSMMDVPTFWQYIVKGAILLLAVWMDSATKRRS [P0AGI4]", "values": [{"measurement": "total protein half-life in vivo", "setting": "[4]", "value": "4.37 ± 0.55", "unit": "h"}, {"measurement": "total protein half-life in vivo", "setting": "[5]", "value": "3.44 ± 0.11", "unit": "h"}, {"measurement": "total protein half-life in vivo", "setting": "[6]", "value": "5.06 ± 1.1", "unit": "h"}, {"measurement": "total protein half-life in vivo", "setting": "[7]", "value": "9.1 ± 0.54", "unit": "h"}, {"measurement": "total protein half-life in vivo", "setting": "[10]", "value": "4.71 ± 0.42", "unit": "h"}, {"measurement": "total protein half-life in vivo", "setting": "[11]", "value": 8.47, "unit": "h"}]}
{"sequence": "MSKTIATENAPAAIGPYVQGVDLGNMIITSGQIPVNPKTGEVPADVAAQARQSLDNVKAIVEAAGLKVGDIVKTTVFVKDLNDFATVNATYEAFFTEHNATFPARSCVEVARLPKDVKIEIEAIAVRR [P0AF93]", "values": [{"measurement": "total protein half-life in vivo", "setting": "[12]", "value": "6.26 ± 0.82", "unit": "h"}, {"measurement": "total protein half-life in vivo", "setting": "[1]", "value": "5.12 ± 0.65", "unit": "h"}, {"measurement": "total protein half-life in vivo", "setting": "[2]", "value": "5.28 ± 0.082", "unit": "h"}, {"measurement": "total protein half-life in vivo", "setting": "[3]", "value": "5.91 ± 0.21", "unit": "h"}, {"measurement": "total protein half-life in vivo", "setting": "[4]", "value": "5.15 ± 0.68", "unit": "h"}, {"measurement": "total protein half-life in vivo", "setting": "[5]", "value": "3.16 ± 0.28", "unit": "h"}, {"measurement": "total protein half-life in vivo", "setting": "[6]", "value": "5.56 ± 0.15", "unit": "h"}, {"measurement": "total protein half-life in vivo", "setting": "[7]", "value": "10.8 ± 1.1", "unit": "h"}, {"measurement": "total protein half-life in vivo", "setting": "[8]", "value": "4.88 ± 0.16", "unit": "h"}, {"measurement": "total protein half-life in vivo", "setting": "[9]", "value": "8.99 ± 0.37", "unit": "h"}, {"measurement": "total protein half-life in vivo", "setting": "[10]", "value": "5.694 ± 0.0093", "unit": "h"}, {"measurement": "total protein half-life in vivo", "setting": "[11]", "value": "12.8 ± 0.61", "unit": "h"}]}
{"sequence": "MSLAKASLWTAASTLVKIGAGLLVGKLLAVSFGPAGLGLAANFRQLITVLGVLAGAGIFNGVTKYVAQYHDNPQQLRRVVGTSSAMVLGFSTLMALVFVLAAAPISQGLFGNTDYQGLVRLVALVQMGIAWGNLLLALMKGFRDAAGNALSLIVGSLIGVLAYYVSYRLGGYEGALLGLALIPALVVIPAAIMLIKRGVIPLSYLKPSWDNGLAGQLSKFTLMALITSVTLPVAYIMMRKLLAAQYSWDEVGIWQGVSSISDAYLQFITASFSVYLLPTLSRLTEKRDITREVVKSLKFVLPAVAAASFTVWLLRDFAIWLLLSNKFTAMRDLFAWQLVGDVLKVGAYVFGYLVIAKASLRFYILAEVSQFTLLMVFAHWLIPAHGALGAAQAYMATYIVYFSLCCGVFLLWRRRA [P0AAA7]", "values": [{"measurement": "total protein half-life in vivo", "setting": "[10]", "value": 5.48, "unit": "h"}]}
{"sequence": "MSLDINQIALHQLIKRDEQNLELVLRDSLLEPTETVVEMVAELHRVYSAKNKAYGLFSEESELAQTLRLQRQGEEDFLAFSRAATGRLRDELAKYPFADGGFVLFCHYRYLAVEYLLVAVLSNLSSMRVNENLDINPTHYLDINHADIVARIDLTEWETNPESTRYLTFLKGRVGRKVADFFMDFLGASEGLNAKAQNRGLLQAVDDFTAEAQLDKAERQNVRQQVYSYCNEQLQAGEEIELKSLSKELAGVSEVSFTEFAAEKGYELEESFPADRSTLRQLTKFAGSGGGLTINFDAMLLGERIFWDPATDTLTIKGTPPNLRDQLQRRTSGGN", "values": [{"measurement": "total protein half-life in vivo", "setting": "[12]", "value": "6.4 ± 0.28", "unit": "h"}, {"measurement": "total protein half-life in vivo", "setting": "[1]", "value": "6.91 ± 0.46", "unit": "h"}, {"measurement": "total protein half-life in vivo", "setting": "[2]", "value": "5.81 ± 0.19", "unit": "h"}, {"measurement": "total protein half-life in vivo", "setting": "[3]", "value": "5.78 ± 0.17", "unit": "h"}, {"measurement": "total protein half-life in vivo", "setting": "[4]", "value": "5.911 ± 0.055", "unit": "h"}, {"measurement": "total protein half-life in vivo", "setting": "[5]", "value": "3.22 ± 0.17", "unit": "h"}, {"measurement": "total protein half-life in vivo", "setting": "[6]", "value": "6.07 ± 0.17", "unit": "h"}, {"measurement": "total protein half-life in vivo", "setting": "[7]", "value": "10.4 ± 2.2", "unit": "h"}, {"measurement": "total protein half-life in vivo", "setting": "[8]", "value": "6.08 ± 0.28", "unit": "h"}, {"measurement": "total protein half-life in vivo", "setting": "[9]", "value": "12 ± 2.2", "unit": "h"}, {"measurement": "total protein half-life in vivo", "setting": "[10]", "value": "6.08 ± 0.094", "unit": "h"}, {"measurement": "total protein half-life in vivo", "setting": "[11]", "value": "12.7 ± 0.4", "unit": "h"}]}
{"sequence": "MSLHSPGKAFRAALTKENPLQIVGTINANHALLAQRAGYQAIYLSGGGVAAGSLGLPDLGISTLDDVLTDIRRITDVCSLPLLVDADIGFGSSAFNVARTVKSMIKAGAAGLHIEDQVGAKRCGHRPNKAIVSKEEMVDRIRAAVDAKTDPDFVIMARTDALAVEGLDAAIERAQAYVEAGAEMLFPEAITELAMYRQFADAVQVPILANITEFGATPLFTTDELRSAHVAMALYPLSAFRAMNRAAEHVYNVLRQEGTQKSVIDTMQTRNELYESINYYQYEEKLDNLFARSQVK", "values": [{"measurement": "total protein half-life in vivo", "setting": "[12]", "value": "3.59 ± 0.66", "unit": "h"}, {"measurement": "total protein half-life in vivo", "setting": "[6]", "value": "4.13 ± 0.31", "unit": "h"}, {"measurement": "total protein half-life in vivo", "setting": "[7]", "value": "5.82 ± 0.58", "unit": "h"}, {"measurement": "total protein half-life in vivo", "setting": "[8]", "value": 4.7, "unit": "h"}]}
